This note sets out measurements from the nanobody polyreactivity screen of Harvey et al. (2022).

This series is described as follows: yeast display, Sf9 membrane polyspecificity reagent, FACS + sequencing; frameworks hold sequencing errors. In a few lines:
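Nanobodies came from a synthetic yeast display library in Saccharomyces cerevisiae BJ5465, induced with galactose for 36–48 hours and stained for 1 hour at 4 °C with 10% biotinylated, detergent-solubilized Sf9 membrane reagent. Cells were enriched on streptavidin microbeads and then FACS-sorted, with low and high (top ~1%) gates set on anti-HA fluorescence for expression and streptavidin fluorescence for reagent binding. Each polyreactivity label reflects the gate a clone came from. Genes were amplified by colony PCR, sequenced by MiSeq 2 × 250 and filtered by CDR length.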
Consider “QDQLVESGGGLVQAGGSLRLSCAASGFTFRYYAMGWYRQAPGKEREFVAAITQSGGSTYYADSVKGRFTISRDNAKNTVYLQMNSLKPEDTAVYYCNTARVKYRWYNYWGQGTQVTVSS”, for which the “polyreactivity (PSR sort gate)” value is recorded as “high polyreactivity”.

For the sequence “QVQLVESGGGLVQAGGSLRLSCAASGSILRYYAMGWFRQAPGKERELVAAISYSGGSTYYADSVKGRFTISRDNAKNTVYLQMNSLKPEDTAVYYCNKLYDRGYDYWGQGTQVTVSS”, the “polyreactivity (PSR sort gate)” value is recorded as “high polyreactivity”.

“QVQLVESGGGLVQAGGSLRLSCAASGIIYYTYAMGWYRQAPGKERELVATISWDVDSTNYADSVKGRFTISRDNAKNTVYLQMNSLKPEDTALYYCAGDYTVDSYWYWVDYYEYGYWGQGTQVTVSS”: the “polyreactivity (PSR sort gate)” value is given as “high polyreactivity”.

Turning to “QVQLVESGGGLVQAGGSLRLSCAASGFTLFQNAMGWYRQAPGKERELVAAISTGGSTYYADSVKGRFTISRDNAKNTVYLQMNSLKPEDTAVYYCAAVWPYRGSRKYYSWGQGTQVTVSS”, the “polyreactivity (PSR sort gate)” value is reported as “high polyreactivity”.

For “QVQLVESGGGLVQAGGSLRLSCASSGGTFTAYAMGWYSQAPGKERELVAAITTNGGRTYYADSVKGRFTISRDNAKNTVYLQMNSLKPEDTAVDYCNRVSLSRRWFLYDYWGQGTQVTVSS”, the “polyreactivity (PSR sort gate)” value was “high polyreactivity”.

Turning to “QVQLVESGGGLVQSGGILLLSCAASGITFGRNAMGWYRQAPGKEGELVAAISRGGSTNYADSVKGRFTISRDNAKNTVYLQMNRLKPEDTAVYYCATAYRGRAWGYDYWGQGTQVTVSS”, the “polyreactivity (PSR sort gate)” value is “high polyreactivity”.

As for “QVQVVESGGGLVQAGGSLRLSCAASGSTFGHNAMGWYRQAPGKERELVAAIDSGDGTTYADSVKGRFTISRDNAKNTVYLQMNSLKPEDTAVYYCNADGLGGADPEYLWYPVPDYDYWGQGTQVTVSS”, the “polyreactivity (PSR sort gate)” value is reported as “low polyreactivity”.

Turning to “QVQLVESGGGLVQAGGSLRLSCAASGRIFVFNAMGWYRQAPGKERELVASISSSGGSTYYADSVKGRFTISRDNAKNTVYLQINSLKPEDTAVYYCARRSYHSRYNYWGQGTQVTVSS”, the “polyreactivity (PSR sort gate)” value is “high polyreactivity”.

As to “QVQVVESGGGLVQAGGSLRLSCAASGFTFILYAMGWYRQAPGKERELVAAISWSGGRTYYADSVKGRFTISRDNAKNTVYLQMNSLKPEDTAVYYCNAPYWTSKSRFDYWGQGTQVTVSS”, the “polyreactivity (PSR sort gate)” value was “low polyreactivity”.

As to “QVQLVESGGGLDQAGGSLRLSCAASASTFYANAMGWYRQSPGKEREFVAAIDWSGATTYYADSVKGRFTISRDNAMNTVYLQMNSLKPEDTAVYYCAAEVYFLATGTWYDYWGLGTQVTVSS”, the “polyreactivity (PSR sort gate)” value is on record as “high polyreactivity”.

As for “HVQLVESGGGLVQAGGILRLSCAASGSTFVKYAMGWYRQATGKERELVAAISSRGGRTYYADSVKGRFTISRDNAKNTVYLQMNSLKPEDTAVYYCNKGTRLDGEYDYWGQGTQVTVSS”, the “polyreactivity (PSR sort gate)” value is “high polyreactivity”.

As for “QVQLVESGGGLVQAGGSLRLSCAASGRIFGYNAMGWYRQAPGKERELVAAIRYSGGRTYYADSVKGRFTISRDNAKNTVYLQMNSLKREDTAVYYCAATAFDKLKVWYYYWGQGTQVTVSS”, the “polyreactivity (PSR sort gate)” value is given as “high polyreactivity”.

Turning to “QVQLVESGGGLVQAGGSLRLSCAASGFISFPYAMGWYRQAPGKERELDASITRSGGNTYYADSVKGRFTISRDNAKNTVYLQMNRLKPEDTAVYYCNAQIYTYRTGRGYSRLDYWGQGTQVTVSS”, the “polyreactivity (PSR sort gate)” value was “high polyreactivity”.

Consider “QVQLVESGGGLVQAGGSLRLSCAASGSTFPYVMGWYTPAPGKERELVAAISQRTGSTYYADSVKGRFTISRDNAKNSVYLQMNILKPEDTAVYYCAKPVYLSPSRYDYWGQGTQVTVSS”, for which the “polyreactivity (PSR sort gate)” value is “high polyreactivity”.

On to “QVQLVESGGGLVQAGGSLRLSCAASGYTFSDNAMGWYRQAPGKEWELVAAISTGGSTNYADSVKGRFTISRDNAKNTVYLQMNSLKPEDTAVYYCATDAWSFGYNYVPLHYDYWGQGTQVTVSS”, for which the “polyreactivity (PSR sort gate)” value is “low polyreactivity”.

As for “QVQLVESGGGLVQAGGSLRLSCAASGRIFYDYAMGWYRQAPGKEWELVAAISGSGGSTYYADSVKGRFTISRDNAKNTVYLQMNSLKPEDTAVYYCNRYTTRYYPGGDYWGQGTQVTVSS”, the “polyreactivity (PSR sort gate)” value is on record as “high polyreactivity”.

Take “QVQLVESGGGLVQAGGSLRLSWAASGSIFGWYGMGWYSPAPGKERELVAAITRGGSTYYADSVKGRFTISRDNAKNTVYLQMNSLKPEDTAGYYCAKRSGQQYGGYGYWGQGTQVTVSS”: the “polyreactivity (PSR sort gate)” value is reported as “low polyreactivity”.

In the case of “QVQLVESGGGLVQAGGSLRLSCAACGGIFWHYTLGWYRKAPGKERELVAAITRRGGSTYYADSVMGRFTISRDNAKNTVYLQMNSLKPEDTAVYYCAADFLPQSYNWYDYWGQGTQVTVSS”, the “polyreactivity (PSR sort gate)” value is “low polyreactivity”.

As for “QVQLVESGGGLVQAGGSLRLSCAASGRTFYFYAMGWYRQAPGKERELVASISWSGGRTYYADSVKGRFTISRDNAKNTVYLQMNSLKPEVTSVYYSAAALWTGYSWGQATQVTVSS”, the “polyreactivity (PSR sort gate)” value was “low polyreactivity”.

As for “QVQLVESGGGLVQAGGSLRLSCAASGRTFGFYAMGWYRQAPGKERELVATISSSGGSTYYADSVKGRYTISRDNAKNTVYIQMNSLKPEDTAVYYCAKVVSGWRSHYIGDYWGQGTQVTVSS”, the “polyreactivity (PSR sort gate)” value is “low polyreactivity”.

For “QVQLVESGGGLVQAGGSLRLSCAASGRIFVNYAMGWYRQAPVKERELVATITWSGGSTFYADSVKGRFTISRDNAKNTVYLQMNSLKPEDTAVYYCAQRGYVRSGLGRPYADDYWGQGTQLTVSS”, the “polyreactivity (PSR sort gate)” value is on record as “low polyreactivity”.

“QVQLVETGGGLVQAGGSLRLSCAPSGRIFTYYGMGWYRQPPGKERELVAAITRSGGSTRYADSVKGRFTISRDNAKNTVYLQMNSLKPEDTAVYYCNAGGYWRYDYWGQGTQVTVSS”: the “polyreactivity (PSR sort gate)” value is “high polyreactivity”.

With “QVQLVESGGGLVQAGGSLRLSCPASGSIFQGNAMGWYRQAPGKERELVAAISWSGDSTYYADSVKGRFTISRDNAKNTVYLQMNSLKPEDTAVYYCNAEWTRDFYEYDYWGQGTQVTVSS”, the “polyreactivity (PSR sort gate)” value is reported as “low polyreactivity”.

In the case of “QVQLVESGGGLVQAGGSLRLSCAASGFTFRAYTMGWYRQAPGKERELVAAITYSGGRTYYADSVKGRFTISRDNAKNTVYLQMNSLKPEDTAVYYCAKRGWALSEYYYWGQGTQVTVSS”, the “polyreactivity (PSR sort gate)” value is reported as “high polyreactivity”.

In the case of “QVKLVESGGGLVQAGGSLRLSCAASGNIFRRYTMGWYRQAPGKERELVAAISSGGSTNYADSEKGRFTISRDNAKNTVYLQMNSLKPEDTAVYYCAVSYRSFRYYWERYYSWGQGTQVTVSS”, the “polyreactivity (PSR sort gate)” value is reported as “high polyreactivity”.

As to “QVQLVESVGGFVQAGGSLRLSCAASGRTFGRYAMGWYRQAPGKEWELVAAITRSGSSTYYADSVKGRFTISRDNAKNTVYLQMNSMKPEDTAVYYCAALYGPFYSTGEYWGQGTQVTVSS”, the “polyreactivity (PSR sort gate)” value is listed as “high polyreactivity”.

For “QVQLVESGGGLVQAGGSLRLSCAASGIIIGYYAMGWYRQAPGKERELVAAISSIGGSTYYADSVKGRFTISRDNAKNTVYLQMNSLKPEDTAVYYCAAKYYGRYYRYLGSSFDYWGQGTQVTVSS”, the “polyreactivity (PSR sort gate)” value was “high polyreactivity”.

As to “QVQLVESGGGLVQAGGSLRLSCAASGRTLPEYVMGWYRQAPGKERELVAAITTAGSTNYADSVKGRFTISRDNAKNTVYLQMNSLKPEDTAVYYCNAYPASRGPGNPLDDYWGQGTQVTVSS”, the “polyreactivity (PSR sort gate)” value was “low polyreactivity”.

With “QVQLVESGGVLVQAGGSLRLSCAASGRTFYYYAMGWYRQAPGKERELVASISWDGGNTYYADSVKGRFTISRDTAKNTVYLHMNSLKPEDTAVYYCNRRFYHKDDYWGQGTQVTVSS”, the “polyreactivity (PSR sort gate)” value is on record as “high polyreactivity”.

As to “QVHLVESGGGLVQAGGSLRLSCAASGIIFYYYTMGWYRQPPGKERELVASISRDGGSTHYADSVKGRFTISRDNAKNTVYLQMNSLKPEDTAVYYCAARYPTGSSYAFYRRKVYYWGQGTQVTVSS”, the “polyreactivity (PSR sort gate)” value is on record as “high polyreactivity”.
